From patent publication US20240059790A1 (JANUX THERAPEUTICS, published 2024) come the findings set out here.

In this test the target is T1, polypeptide complex 1 (PC-1).
T1 construct: also called Intact PC-1; uncleaved PC-1
In words: ELISA ('Cyno Albumin ELISA').

B1: cynomolgus monkey albumin (other)
chain: DTHKSEVAHRFKDLGEEHFKGLVLVAFSQYLQQCPFEEHVKLVNEVTEFAKTCVADESAENCDKSLHTLFGDKLCTVATLRETYGEMADCCAKQEPERNECFLQHKDDNPNLPPLVRPEVDVMCTAFHDNEATFLKKYLYEVARRHPYFYAPELLFFAARYKAAFAECCQAADKAACLLPKLDELRDEGKASSAKQRLKCASLQKFGDRAFKAWAVARLSQKFPKAEFAEVSKLVTDLTKVHTECCHGDLLECADDRADLAKYMCENQDSISSKLKECCDKPLLEKSHCLAEVENDEMPADLPSLAADYVESKDVCKNYAEAKDVFLGMFLYEYARRHPDYSVMLLLRLAKAYEATLEKCCAAADPHECYAKVFDEFQPLVEEPQNLVKQNCELFEQLGEYKFQNALLVRYTKKVPQVSTPTLVEVSRNLGKVGAKCCKLPEAKRMPCAEDYLSVVLNRLCVLHEKTPVSEKVTKCCTESLVNRRPCFSALELDEAYVPKAFNAETFTFHADMCTLSEKEKQVKKQTALVELVKHKPKATKEQLKGVMDNFAAFVEKCCKADDKEACFAEEGPKFVAASQAALA
notes: Antigen immobilized on the ELISA plate
Regarding B1, the binding result was “binds”.
